Measured values: article PMC11289409, “Coupling sensor to enzyme in the voltage sensing phosphatase” (Nature Communications, 2024)

Target: the molecule itself
Assay: cryo-EM structure; Dr-VSP (C302S) in MSP2N2 lipid nanodiscs (Dr-VSP:MSP2N2:lipid 1:4:400), 20 mM Tris, 150 mM NaCl, 5 mM EGTA, pH 8, 5.6 mg/ml; class of particles with the cytoplasmic domain as a dimer, 3.0 Å

B1: Danio rerio voltage-sensing phosphatase (Dr-VSP) with the active site cysteine mutated to serine (C302S) (enzyme, UniProt Q4V9E4 1-511, looked up)
chain: MTSVHFNPGLDSKEVNGNSVKEEAEVQIDDGKEETKDPDTMYHQVRKKITPFVMSFGFRVFGLVLIILDIIMVIVDLSLSEKSRDVGGAPETVSLVISFFFLIDVLLRVYVEGFKVYFSSKLNIVDACIVVITLVVTMIYAFSDFSGASLIPRVVTFLRSLRILILVRIFRLASQKRELEKVTRRMVSENKRRYQKDGFDLDLTYVTERVIAMSFPSSGKQALYRNPIREVVRFLDTKHMDHYKVFNLCSEKGYDPKFFHYRVERVMIDDHNVPSLDDMLRYTACVRDWMAADSRNVIAIHSKGGKGRTGTMVCTWLIDSDQFESAQESLDYFGERRTDKSMSSKFQGVETPSQSRYVGYYEIMKNQYNRQLPPRKSLKIKSIRIHSIAGVGKGNGSDLKLKIIVKHELVFQCVCAKQHNCTVFPDTGSNAVVISLQDGPIVTGDVKVMFESSAGLPKGYEDCPFYFWFNTSFVENYRLFLSREELDNPHKPKTWDIYKEDFGVTLSFTEP
notes: Danio rerio voltage-sensing phosphatase (Dr-VSP), full-length construct in a modified pPICZ-B vector, with C302S; only the cytoplasmic domain is resolved in the dimer map; The methods name the full-length Dr-VSP construct; also called Dr-VSP (C302S); Danio rerio VSP C302S; not shown: eGFP, C-terminal, cleaved; His10, C-terminal, cleaved
For B1, which “stoichiometry N” value is on record?
The value was 2.
